PMC3983144 (Bioconjugate chemistry, 2014)
Square brackets hold non-standard residues; d marks the D form. Nle = CCCC[C@H](N)C(=O)O

Target: melanocortin 1 receptor (mouse (endogenous in B16F10), UniProt Q01727 1-315)
Test: radioligand binding

Chain of melanocortin 1 receptor (Q01727 whole entry, one chain of several): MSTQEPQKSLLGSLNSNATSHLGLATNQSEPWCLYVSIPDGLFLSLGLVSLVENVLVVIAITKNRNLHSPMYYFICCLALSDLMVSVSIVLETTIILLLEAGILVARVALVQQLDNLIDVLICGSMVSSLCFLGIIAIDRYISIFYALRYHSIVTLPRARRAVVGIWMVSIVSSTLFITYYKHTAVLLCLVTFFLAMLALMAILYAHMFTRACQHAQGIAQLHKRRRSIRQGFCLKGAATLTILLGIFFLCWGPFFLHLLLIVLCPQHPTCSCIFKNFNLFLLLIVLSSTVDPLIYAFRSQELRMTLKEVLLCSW

B1: Ac-Cys-Nle-Asp-His-D-Phe-Arg-Trp-Gly-Lys-NH2 (peptide)
chain: Ac-C[Nle]DH[dF]RWGK-NH2
SMILES: CCCC[C@H](NC(=O)[C@H](CS)NC(C)=O)C(=O)N[C@@H](CC(=O)O)C(=O)N[C@@H](Cc1c[nH]cn1)C(=O)N[C@H](Cc1ccccc1)C(=O)N[C@@H](CCCNC(=N)N)C(=O)N[C@@H](Cc1c[nH]c2ccccc12)C(=O)NCC(=O)N[C@@H](CCCCN)C(N)=O
B1 was tested. Which IC50 did it give?
The IC50 was 2.19 ± 0.54 nM.
